Assay [1] deals with T1, RON (MSP Receptor ECD-His tag) (UniProt Q04912 25-957, limits assumed).
T1 construct: extracellular domain; Bought reagent
As to the kind of experiment: Direct Bind ELISA, antigen on plate; N-terminal VD. Background: An ELISA detects its analyte on a solid surface through an enzyme-linked reagent.

In assay [2] the target is T2, insulin-like growth factor receptor (IGF1R) (human, UniProt P08069 31-1367). As to the kind of experiment: cell-based or functional assay.
The target of assay [3] is T2, insulin-like growth factor receptor …. As to the kind of experiment: cell-based or functional assay. The source holds these as a separate data set.
For assay [4] the target is unchanged. As to the kind of experiment: cell-based or functional assay. This is another data set of the same source.
Assay [5] addresses T3, PlGF (UniProt P49763-2 21-149, limits assumed).
T3 construct: bought antigen coated on the ELISA plate; also called Placental GF
T3 sequence (looked up): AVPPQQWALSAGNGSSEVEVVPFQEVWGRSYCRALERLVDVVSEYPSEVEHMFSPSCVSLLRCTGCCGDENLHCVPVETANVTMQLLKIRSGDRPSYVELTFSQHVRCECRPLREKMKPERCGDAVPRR
As to the kind of experiment: direct bind ELISA, reference antibody.

In assay [6] the target is biotinylated ErbB3 (UniProt P21860 20-643, limits assumed, biotinylated). As to the kind of experiment: capture ELISA, antibody captured by anti-human IgG Fc, biotinylated ErbB3.
Description: The plates were washed with PBS containing 0.05% Tween 20 three times and blocked with 200 μl/well of 1% BSA/PBS for 1 hour at room temperature. Fifty μl of 5 nM DVD-Ig or antibody were added to each well and incubated for 1 hour at room temperature. […] The wells were washed three times, and 100 μl of ULTRA-TMB ELISA (Pierce, Rockford, Ill.) were added per well.
Assay [7] deals with hIGF1 (human, UniProt P05019 49-118). As to the kind of experiment: cell-based or functional assay.
Assay [8] deals with IGF2 (UniProt P01344 25-91). As to the kind of experiment: cell-based or functional assay.
Assay [9] deals with T4, HGF-His tag (UniProt P14210 32-728).
T4 construct: Bought antigen coated on the ELISA plate; not shown: His tag
T4 sequence (P14210 32-728 limits assumed): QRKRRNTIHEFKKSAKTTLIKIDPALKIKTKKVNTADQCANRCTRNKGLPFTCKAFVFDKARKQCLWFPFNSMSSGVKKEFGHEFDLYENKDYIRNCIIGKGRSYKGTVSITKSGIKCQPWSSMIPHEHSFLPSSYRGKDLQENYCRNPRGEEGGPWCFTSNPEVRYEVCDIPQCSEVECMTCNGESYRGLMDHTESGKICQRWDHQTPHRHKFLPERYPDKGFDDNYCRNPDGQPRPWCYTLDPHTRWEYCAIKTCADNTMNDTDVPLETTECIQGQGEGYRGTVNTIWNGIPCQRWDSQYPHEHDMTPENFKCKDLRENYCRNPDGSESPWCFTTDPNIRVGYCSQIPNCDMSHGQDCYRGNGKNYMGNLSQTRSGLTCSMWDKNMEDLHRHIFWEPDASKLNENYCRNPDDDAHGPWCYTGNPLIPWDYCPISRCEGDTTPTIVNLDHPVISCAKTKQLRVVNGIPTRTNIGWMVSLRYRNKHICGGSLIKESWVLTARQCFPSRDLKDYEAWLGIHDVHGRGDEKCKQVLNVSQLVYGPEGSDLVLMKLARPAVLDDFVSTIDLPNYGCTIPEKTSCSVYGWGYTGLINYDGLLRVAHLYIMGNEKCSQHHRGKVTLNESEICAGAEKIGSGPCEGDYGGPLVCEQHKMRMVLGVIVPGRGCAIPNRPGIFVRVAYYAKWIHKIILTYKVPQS
As to the kind of experiment: direct bind ELISA (ref Ab).

Assay [10] has as its target T5, HGF (HGF-His tag) (UniProt P14210 32-728).
T5 construct: Bought reagent
As to the kind of experiment: Direct Bind ELISA, antigen on plate; C-terminal VD.
Description: Enzyme Linked Immunosorbent Assays to screen for antibodies that bind a desired target antigen were performed as follows. […] Plates were washed four times with PBS containing 0.02% Tween 20. Plates were blocked by the addition of 300 μL/well blocking solution (non-fat dry milk powder, various retail suppliers, diluted to 2% in PBS) for ½ hour at room temperature. Plates were washed four times after blocking with PBS containing 0.02% Tween 20.
Alternatively, one hundred microliters per well of 10 μg/ml of Histidine (His) tagged desired target antigen (R&D Systems, Minneapolis, Minn.) was added to ELISA plates coated with monoclonal mouse anti-polyHistidine antibody as described above and incubated for 1 hour at room temperature. Wells were washed four times with PBS containing 0.02% Tween 20.
One hundred microliters of antibody or DVD-Ig preparations diluted in blocking solution as described above was added to the desired target antigen plate or desired target antigen/FC fusion plate or the anti-polyHistidine antibody/His tagged desired target antigen plate prepared as described above and incubated for 1 hour at room temperature. Wells are washed four times with PBS containing 0.02% Tween 20.

Here are results for 12 molecules from patent US20100260668A1 (published 2010).

Several values for one entry are separate records, joined by “and”; a condition that tells them apart may be missing. Equal values may be shown once.

T5 sequence (P14210 32-728 limits assumed): as above

B1: DVD048 (RON (seq. 1) and VEGF (seq. 1) DVD-Ig) (bispecific antibody, IgG1)
VH: EVQLVQSGGGLVKPGGSLRLSCAASGFTFSSYAMHWVRQAPGKGLEWVAVISYDGSNKYYADSVKGRFTISRDNSKNTLYLQMNSLRAEDTAVYYCARFSGWPNNYYYYGMDVWGQGTTVTVSSASTKGPEVQLVESGGGLVQPGGSLRLSCAASGYTFTNYGMNWVRQAPGKGLEWVGWINTYTGEPTYAADFKRRFTFSLDTSKSTAYLQMNSLRAEDTAVYYCAKYPHYYGSSHWYFDVWGQGTLVTVSS
VL: DVVMTQSPLSLPVTPGEPASISCRSSQSLLHSNGFNYVDWYLQKPGQSPHLLIYFGSYRASGVPDRFSGSGSGTDFTLKISRVEAEDVGVYYCMQALQTPPWTFGQGTKVEIRRTVAAPDIQMTQSPSSLSASVGDRVTITCSASQDISNYLNWYQQKPGKAPKVLIYFTSSLHSGVPSRFSGSGSGTDFTLTISSLQPEDFATYYCQQYSTVPWTFGQGTKVEIKR
notes: HC vector V1 (wild-type hIgG1 constant), LC vector V2 (kappa constant); also called DVD048H; DVD048L
For orientation: EC50 means the concentration giving half of the maximal effect. Low readings indicate higher potency in that assay, high ones lower potency in that assay. As to B1, in assay [1], the EC50 stood at 0.46 nM.

B2: AB011 (antibody, human IgG1, kappa, V domains shown)
VH: EVQLLESGGGLVQPGGSLRLSCTASGFTFSSYAMNWVRQAPGKGLEWVSAISGSGGTTFYADSVKGRFTISRDNSRTTLYLQMNSLRAEDTAVYYCAKDLGWSDSYYYYYGMDVWGQGTTVTVSS
VL: DIQMTQFPSSLSASVGDRVTITCRASQGIRNDLGWYQQKPGKAPKRLIYAASRLHRGVPSRFSGSGSGTEFTLTISSLQPEDFATYYCLQHNSYPCSFGQGTKLEIKR
Take B2: in assay [2], the “H929, IGF1R line proliferation inhibition IC50” value is 0.1 nM and the “H929, IGF1R line proliferation inhibition, max” value came out at 65 % max. Further, in assay [3], the “A431, EGFR line proliferation inhibition IC50” value was > 67 nM and the “A431, EGFR line proliferation inhibition, max” value amounted to 5 % max. Further, in [4], the “GEO, EGFR/IGF1R line proliferation inhibition IC50” value was > 67 nM and the “GEO, EGFR/IGF1R line proliferation inhibition, max” value amounted to 15 % max.

B3: AB047 (antibody, human IgG1, kappa, V domains shown)
VH: QVQLQQSGAELVKPGASVKISCKASGYTFTDYYINWVKLAPGQGLEWIGWIYPGSGNTKYNEKFKGKATLTIDTSSSTAYMQLSSLTSEDTAVYFCVRDSPFFDYWGQGTLLTVSS
VL: DIVLTQSPDSLAVSLGERVTMNCKSSQSLLNSGMRKSFLAWYQQKPGQSPKLLIYWASTRESGVPDRFTGSGSGTDFTLTISSVQAEDVAVYYCKQSYHLFTFGSGTKLEIKR
Turning to B3, the EC50 in assay [5] is 0.13 nM and 0.14 nM and 0.17 nM.

B4: AB062 (antibody, human IgG1, kappa, V domains shown)
VH: QVQLQQWGAGLLKPSETLSLTCAVYGGSFSGYYWSWIRQPPGKGLEWIGEINHSGSTNYNPSLKSRVTISVETSKNQFSLKLSSVTAADTAVYYCARDKWTWYFDLWGRGTLVTVSS
VL: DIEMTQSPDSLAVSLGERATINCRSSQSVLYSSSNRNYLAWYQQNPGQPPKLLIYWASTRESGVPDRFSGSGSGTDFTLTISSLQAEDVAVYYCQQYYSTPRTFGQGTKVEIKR
With B4, in [6], a half-maximal response (EC50) required 0.26 nM.

B5: AB074 (antibody, human IgG1, kappa, V domains shown)
VH: QVQLKQSGPGLVQPSQSLSITCTVSGFSLTTYGIHWVRQSPGKGLEWLGVMWSGGDTDYDAAFISRLSISKDNSKSQVFFKMNSLQANDTGIYYCARYRFYGMDYWGQGTSVTVSS
VL: AIQMTQSSSSFSVSLGDRVTITCKASEDIYNRFAWYQQKPGNAPRLLISGAASLEAGVPSRFSGSGSGQDYTLSITSLQTEDVATYYCQQYWSTPWTFGGGTKLEIKR
On to B5, for which the response in assay [5] was half-maximal at 0.49 nM (EC50).

B6: DVD041 (bispecific antibody, human IgG1, lambda)
heavy: not shown
light: DIQMTQSPSSLSASVGDRVTITCSASQDISNYLNWYQQKPGKAPKVLIYFTSSLHSGVPSRFSGSGSGTDFTLTISSLQPEDFATYYCQQYSTVPWTFGQGTKVEIKRTVAAPQSVLTQPPSVSAAPGQKVTISCSGSSSNIENNHVSWYQQLPGTAPKLLIYDNNKRPSGIPDRFSGSKSGTSATLGITGLQTGDEADYYCETWDTSLSAGRVFGGGTKLTVLGQPKAAPSVTLFPPSSEELQANKATLVCLISDFYPGAVTVAWKADSSPVKAGVETTTPSKQSNNKYAASSYLSLTPEQWKSHRSYSCQVTHEGSTVEKTVAPTECS
For B6, the “C-terminal VD pIGF1R Cellular Assay (hIGF1 Neutralization IC50 nM)” value in assay [7] was 16.8 nM. The “C-terminal VD pIGFR1 Cellular Assay (IGF2 induced IC50 nM)” value in [8] turned out to be 1.5 nM.

B7: AB012 (antibody, human IgG1, kappa, V domains shown)
VH: QVQLVESGGGLVKPGGSLRLSCAASGFTFSDYYMSWIRQAPGKGLEWVSYISSSGSTIYYADSVKGRFTISRDNAKNSLYLQMNSLRAEDTAVYYCARDEYNSGWYVLFDYWGQGTLVTVSS
VL: DIQMTQSPSSVSASVGDRVTITCRASQGISSWLAWYQQKPGKAPNLLIYEASSLQSGVPSRFGGSGSGTDFTLTISSLQPEDFATYYCQQANGFPWTFGQGTKVEIKR
notes: Vectors V1/V2
Consider B7, for which the EC50 in [9] was 0.15 nM and 0.17 nM and 0.16 nM.

B8: DVD033 (RON (seq. 1) and HGF (seq. 1) DVD-Ig) (bispecific antibody, IgG1)
VH: EVQLVQSGGGLVKPGGSLRLSCAASGFTFSSYAMHWVRQAPGKGLEWVAVISYDGSNKYYADSVKGRFTISRDNSKNTLYLQMNSLRAEDTAVYYCARFSGWPNNYYYYGMDVWGQGTTVTVSSASTKGPQVQLVESGGGLVKPGGSLRLSCAASGFTFSDYYMSWIRQAPGKGLEWVSYISSSGSTIYYADSVKGRFTISRDNAKNSLYLQMNSLRAEDTAVYYCARDEYNSGWYVLFDYWGQGTLVTVSS
VL: DVVMTQSPLSLPVTPGEPASISCRSSQSLLHSNGFNYVDWYLQKPGQSPHLLIYFGSYRASGVPDRFSGSGSGTDFTLKISRVEAEDVGVYYCMQALQTPPWTFGQGTKVEIRRTVAAPDIQMTQSPSSVSASVGDRVTITCRASQGISSWLAWYQQKPGKAPNLLIYEASSLQSGVPSRFGGSGSGTDFTLTISSLQPEDFATYYCQQANGFPWTFGQGTKVEIKR
notes: Outer AB005, inner AB012; HC vector V1 (wild-type hIgG1 constant), LC vector V2 (kappa constant); also called DVD033H; DVD033L
B8: the EC50 in [10] was 11.9 nM; in [1], 0.22 nM.

B9: AB079 (antibody, human IgG1, kappa, V domains shown)
VH: EVQLVQSGAEVKKPGESLKISCKGSGYSFTTYWMHWVRQMPGKGLEWMGEINPTNGHTNYNPSFQGQVTISADKSISTAYLQWSSLKASDTAMYYCARNYVGSIFDYWGQGTLVTVSS
VL: DIQMTQSPSSLSASVGDRVTITCKASENVVSYVSWYQQKPGKAPKLLIYGASNRNTGVPSRFSGSGSGTDFTLTISSLQPEDFATYYCGQSYNYPYTFGQGTKLEIKR
notes: Vectors V1/V2
Consider B9, for which the EC50 in assay [9] was 0.48 nM and 0.39 nM and 0.4 nM and 0.41 nM.

B10: AB010 (antibody, human IgG1, lambda, V domains shown)
VH: QVQLVQSGAEVKKPGASVKVSCKASGYTFTSYDINWVRQATGQGLEWMGWMNPNSGNTGYAQKFQGRVTMTRNTSISTAYMELSSLRSEDTAVYYCARDPYYYYYGMDVWGQGTTVTVSS
VL: QSVLTQPPSVSAAPGQKVTISCSGSSSNIENNHVSWYQQLPGTAPKLLIYDNNKRPSGIPDRFSGSKSGTSATLGITGLQTGDEADYYCETWDTSLSAGRVFGGGTKLTVLG
B10: the “pIGF1R Cellular Assay (hIGF1 Neutralization IC50 nM)” value in assay [7] was 1.7 nM. Moreover, the “pIGFR1 Cellular Assay (IGF2 induced IC50 nM)” value in [8] worked out at 0.3 nM.

B11: AB063 (antibody, human IgG1, kappa, V domains shown)
VH: EVQLVESGGGLVQPGGSLRLSCAASGFTFSIYSMNWVRQAPGKGLEWVSYISSSSSTIYYADSVKGRFTISRDNAKNSLYLQMNSLRDEDTAVYYCARDRGDFDAFDIWGQGTMVTVSS
VL: DIQMTQSPSSLSASVGDRVTITCQASQDITNYLNWYQQKPGKAPKLLIYDASNLETGVPSRFSGSGSGTDFTFTISSLQPEDIATYNCQQCENFPITFGQGTRLEIKR
As for B11, in [6], the EC50 is 0.67 nM.

B12: DVD045 (VEGF (seq. 1) and HGF (seq. 1) DVD-Ig) (bispecific antibody, IgG1)
VH: EVQLVESGGGLVQPGGSLRLSCAASGYTFTNYGMNWVRQAPGKGLEWVGWINTYTGEPTYAADFKRRFTFSLDTSKSTAYLQMNSLRAEDTAVYYCAKYPHYYGSSHWYFDVWGQGTLVTVSSASTKGPQVQLVESGGGLVKPGGSLRLSCAASGFTFSDYYMSWIRQAPGKGLEWVSYISSSGSTIYYADSVKGRFTISRDNAKNSLYLQMNSLRAEDTAVYYCARDEYNSGWYVLFDYWGQGTLVTVSS
VL: DIQMTQSPSSLSASVGDRVTITCSASQDISNYLNWYQQKPGKAPKVLIYFTSSLHSGVPSRFSGSGSGTDFTLTISSLQPEDFATYYCQQYSTVPWTFGQGTKVEIKRTVAAPDIQMTQSPSSVSASVGDRVTITCRASQGISSWLAWYQQKPGKAPNLLIYEASSLQSGVPSRFGGSGSGTDFTLTISSLQPEDFATYYCQQANGFPWTFGQGTKVEIKR
notes: HC vector V1 (wild-type hIgG1 constant), LC vector V2 (kappa constant); also called DVD045H; DVD045L
B12: in [10], the midpoint of the response, the EC50, lay at 185 nM.
